Biological target: PDGF-DD (active, proteolytically processed homodimer) as used in solid-phase binding and SPR (human) (UniProt Q9GZP0)
Assay: SPR (Biacore T100), PDGF-DD immobilised on CM5 chip, NKp44 18-130-His6 in the mobile phase, steady-state fit for a 1:1 interaction

Sequence of PDGF-DD (active, proteolytically processed homodimer) as used in solid-phase binding and SPR (human) (Q9GZP0 184-370 limits assumed, form in doubt): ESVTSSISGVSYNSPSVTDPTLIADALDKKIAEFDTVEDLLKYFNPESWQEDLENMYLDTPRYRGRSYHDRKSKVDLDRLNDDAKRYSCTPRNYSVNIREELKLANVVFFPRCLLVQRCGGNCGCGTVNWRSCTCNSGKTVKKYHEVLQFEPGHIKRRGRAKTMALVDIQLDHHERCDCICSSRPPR

Substance: Bacterial expressed NKp44 (residues 18-130 with a C-terminal His6 tag) (from UniProt O95944 18-130) (receptor)
- Kd: 3.3 µM

— patent US20200046770A1
